Consider 3 molecules from PMC9989938 (Immunity, 2023).

One assay concerns the target Biotinylated Pfs230D1 (Plasmodium falciparum 3D7, UniProt P68874, biotin (site not stated)). The assay is described as follows: BLI. On the technique in general: In BLI a coated tip is dipped into the sample, and binding shifts an interference pattern.
Assay [1] deals with Pfs230D1D2 (first two 6-Cys domains of Pfs230), 6xHis (Plasmodium falciparum 3D7, UniProt P68874). The experiment in a line: crystal structure.
Assay [2] has as its target Pfs230D1 D714N variant, 6xHis, from Expi293 cells (P. falciparum, UniProt P68874). The experiment in a line: BLI.
For assay [3], the target named is Pfs230 domain 1 (Pfs230D1), wild-type, 6xHis, from Expi293 cells (P. falciparum, UniProt P68874). The experiment in a line: BLI.
Assay [4] addresses Pfs230D1 G605R variant, 6xHis, from Expi293 cells (P. falciparum, UniProt P68874, G605R). The assay is described as follows: BLI.
The target of assay [5] is Pfs230D1 G605S variant, 6xHis, from Expi293 cells (P. falciparum, UniProt P68874, G605S). The experiment in a line: BLI.

One may read the Kd as the equilibrium constant for the complex coming apart. In general, koff refers to a measure of how fast the partners let go of each other. Lower therefore signals a long-lived complex. The term kon denotes the second-order rate constant of association. Higher therefore signals faster complex formation.

B1: 230AS-73 scFv (scFv, V domains shown)
VH: QVQLQQWGAGLLKPSETLSLTCAVSGASFSGYSWTWIRQSPGKGLEWIGEIDYRGSTNYNPSLKSRVTMSVDTPKNQFSLNLTSLTAADTAIYYCAKGYGGVTLVRGAKINWFDPWGQGTLVTVSS
VL: EIVLTQSPGTLSLSPGERATLSCRASQSVTSRYLAWYQQKPGQAPRLLIFGASSRATGIPDRFSGSGSGTDFTLTISRLEPEDFAVYFCQQYAKSPWTFGQGTKVEIK
For B1, the binding result (with Biotinylated Pfs230D1; in assay [1]) was “binds” each time.

B2: 230AL-37 IgG (antibody, V domains shown)
VH: QVQLVESGGGVVQPGGSLRLSCTASGLIFNKYGIYWVRQAPGKGLEWVAFIRYDGTNQFYADSVKGRFTISRDNSKNKVYLQMNSLRAEDTALYYCAKDRGSIIVFDHWGQGTLVTVSS
VL: EIVLTQSPATLSLSPGERVTLSCRASQAVGIYLAWYQQKPGQAPRLLIYHVSKRDTGVPDRFSGSGSGTDFTLTISSLEPEDFAVYYCQQHRNWPPITFGQGTRLEIK
For the molecule B2, the dissociation constant (Kd) in assay [2] was 15 nM; in assay [3], 0.34 nM; in assay [4], 5.01 nM; in assay [5] it was 0.65 nM. Also, the koff in assay [2] was 0.00422 s⁻¹; in assay [3] it was 0.000181 s⁻¹; in assay [4] it was 0.000426 s⁻¹; in assay [5] it was 0.000147 s⁻¹. Moreover, the kon worked out at 291000 M⁻¹ s⁻¹ in assay [2], 538000 M⁻¹ s⁻¹ in assay [3], 85100 M⁻¹ s⁻¹ in assay [4] and 214000 M⁻¹ s⁻¹ in assay [5].

B3: 230AL-37 scFv (scFv, V domains shown)
VH: QVQLVESGGGVVQPGGSLRLSCTASGLIFNKYGIYWVRQAPGKGLEWVAFIRYDGTNQFYADSVKGRFTISRDNSKNKVYLQMNSLRAEDTALYYCAKDRGSIIVFDHWGQGTLVTVSS
VL: EIVLTQSPATLSLSPGERVTLSCRASQAVGIYLAWYQQKPGQAPRLLIYHVSKRDTGVPDRFSGSGSGTDFTLTISSLEPEDFAVYYCQQHRNWPPITFGQGTRLEIK
As for B3, in assay [1], the binding result is “binds”.
